Here are results for eleven molecules from patent US20090202980A1 (CROSSBETA BIOSCIENCES B V, published 2009).

The term Kd denotes the free concentration of one partner at which half of the binding sites on the other are occupied at equilibrium, for simple one-to-one binding.

B1: tPA K1-GST (kringle 1 domain of human tPA with C-terminal GST tag) (other, UniProt P00750 123-210, looked up)
chain: TRATCYEDQGISYRGTWSTAESGAECTNWNSSALAQKPYSGRRPDAIRLGLGNHNYCRNPDRDSKPWCYVFKAGKYSSEFCSTPACSE
notes: domain: K1; not shown: vector residues and thrombin cleavage site; Schistosoma japonicum glutathion-S-transferase (GST) tag
B2: recombinant tissue-type plasminogen activator (tPA) (enzyme, human, UniProt P00750 36-562, looked up)
chain: SYQVICRDEKTQMIYQQHQSWLRPVLRSNRVEYCWCNSGRAQCHSVPVKSCSEPRCFNGGTCQQALYFSDFVCQCPEGFAGKCCEIDTRATCYEDQGISYRGTWSTAESGAECTNWNSSALAQKPYSGRRPDAIRLGLGNHNYCRNPDRDSKPWCYVFKAGKYSSEFCSTPACSEGNSDCYFGNGSAYRGTHSLTESGASCLPWNSMILIGKVYTAQNPSAQALGLGKHNYCRNPDGDAKPWCHVLKNRRLTWEYCDVPSCSTCGLRQYSQPQFRIKGGLFADIASHPWQAAIFAKHRRSPGERFLCGGILISSCWILSAAHCFQERFPPHHLTVILGRTYRVVPGEEEQKFEVEKYIVHKEFDDDTYDNDIALLQLKSDSSRCAQESSVVRTVCLPPADLQLPDWTECELSGYGKHEALSPFYSERLKEAHVRLYPSSRCTSQHLLNRTVTDNMLCAGDTRSGGPQANLHDACQGDSGGPLVCLNDGRMTLVGIISWGLGCGQKDVPGVYTKVTNYLDWIRDNMRP
notes: Commercial full-length recombinant tPA; also called Alteplase; Actilyse
B3: fibrin peptide 85 (FP13), human fibrin α-chain fragment α148-160 (peptide)
peptide: KRLEVDIDIKIRS
notes: also called fibrin fragment α147-159 FP13
B4: tPA-F-GST (finger domain of human tPA with C-terminal GST tag) (other, UniProt P00750 36-85, looked up)
chain: SYQVICRDEKTQMIYQQHQSWLRPVLRSNRVEYCWCNSGRAQCHSVPVKS
notes: range 1-50; Expressed in 293T or BHK cells; Residues 1-50 count on mature tPA, not on the SwissProt precursor; also called tPA-F domain; F-tPA; not shown: (G)RP vector residues and thrombin cleavage site between domain and GST; Schistosoma japonicum glutathion-S-transferase (GST) tag
B5: human IAPP amyloid core fragment (ΔhIAPP) (peptide)
peptide: SNNFGAILSS
notes: also called hΔIAPP; human amylin fragment
B6: plasmin (activated plasminogen) (enzyme, UniProt P00747 97-810, looked up)
chain: KVYLSECKTGNGKNYRGTMSKTKNGITCQKWSSTSPHRPRFSPATHPSEGLEENYCRNPDNDPQGPWCYTTDPEKRYDYCDILECEEECMHCSGENYDGKISKTMSGLECQAWDSQSPHAHGYIPSKFPNKNLKKNYCRNPDRELRPWCFTTDPNKRWELCDIPRCTTPPPSSGPTYQCLKGTGENYRGNVAVTVSGHTCQHWSAQTPHTHNRTPENFPCKNLDENYCRNPDGKRAPWCHTTNSQVRWEYCKIPSCDSSPVSTEQLAPTAPPELTPVVQDCYHGDGQSYRGTSSTTTTGKKCQSWSSMTPHRHQKTPENYPNAGLTMNYCRNPDADKGPWCFTTDPSVRWEYCNLKKCSGTEASVVAPPPVVLLPDVETPSEEDCMFGNGKGYRGKRATTVTGTPCQDWAAQEPHRHSIFTPETNPRAGLEKNYCRNPDGDVGGPWCYTTNPRKLYDYCDVPQCAAPSFDCGKPQVEPKKCPGRVVGGCVAHPHSWPWQVSLRTRFGMHFCGGTLISPEWVLTAAHCLEKSPRPSSYKVILGAHQEVNLEPHVQEIEVSRLFLEPTRKDIALLKLSSPAVITDKVIPACLPSPNYVVADRTECFITGWGETQGTFGAGLLKEAQLPVIENKVCNRYEFLNGRVQSTELCAGHLAGGTDSCQGDSGGPLVCFEKDKYILQGVTSWGLGCARPNKPGVYVRVSRFVTWIEGVMRNN
B7: tPA-F-EGF-GST (finger and EGF domains of human tPA with C-terminal GST tag) (other, UniProt P00750 36-122, looked up)
chain: SYQVICRDEKTQMIYQQHQSWLRPVLRSNRVEYCWCNSGRAQCHSVPVKSCSEPRCFNGGTCQQALYFSDFVCQCPEGFAGKCCEID
notes: domain: F-EGF; also called F-EGF-tPA; not shown: vector residues and thrombin cleavage site; Schistosoma japonicum glutathion-S-transferase (GST) tag
B8: recombinant human β2-glycoprotein I (expressed in insect cells) (other, UniProt P02749 20-345, looked up)
chain: GRTCPKPDDLPFSTVVPLKTFYEPGEEITYSCKPGYVSRGGMRKFICPLTGLWPINTLKCTPRVCPFAGILENGAVRYTTFEYPNTISFSCNTGFYLNGADSAKCTEEGKWSPELPVCAPIICPPPSIPTFATLRVYKPSAGNNSLYRDTAVFECLPQHAMFGNDTITCTTHGNWTKLPECREVKCPFPSRPDNGFVNYPAKPTLYYKDKATFGCHDGYSLDGPEEIECTKLGNWSAMPSCKASCKVPVKKATVVYQGERVKIQEKFKNGMLHGDKVSFFCKNKEKKCSYTEDAQCIDGTIEVPKCFKEHSSLAFWKTDASDVKPC
notes: also called recombinant β2gpi; rβ2gpi
B9: human factor XII (Hageman factor) (enzyme, UniProt P00748 20-615, looked up)
chain: IPPWEAPKEHKYKAEEHTVVLTVTGEPCHFPFQYHRQLYHKCTHKGRPGPQPWCATTPNFDQDQRWGYCLEPKKVKDHCSKHSPCQKGGTCVNMPSGPHCLCPQHLTGNHCQKEKCFEPQLLRFFHKNEIWYRTEQAAVARCQCKGPDAHCQRLASQACRTNPCLHGGRCLEVEGHRLCHCPVGYTGAFCDVDTKASCYDGRGLSYRGLARTTLSGAPCQPWASEATYRNVTAEQARNWGLGGHAFCRNPDNDIRPWCFVLNRDRLSWEYCDLAQCQTPTQAAPPTPVSPRLHVPLMPAQPAPPKPQPTTRTPPQSQTPGALPAKREQPPSLTRNGPLSCGQRLRKSLSSMTRVVGGLVALRGAHPYIAALYWGHSFCAGSLIAPCWVLTAAHCLQDRPAPEDLTVVLGQERRNHSCEPCQTLAVRSYRLHEAFSPVSYQHDLALLRLQEDADGSCALLSPYVQPVCLPSGAARPSETTLCQVAGWGHQFEGAEEYASFLQEAQVPFLSLERCSAPDVHGSSILPGMLCAGFLEGGTDACQGDSGGPLVCEDQAAERRLTLQGIISWGSGCGDRNKPGVYTDVAYYLAWIREHTVS
notes: also called FXII; fXII

Experiment [1] has as its target T1, human amyloid-β peptide Aβ(1-40) (human).
T1 construct: also called hAβ(1-40); amyloid-β(1-40)
Nature of the experiment: pull-down with Aβ fibrils, Western blot. The protocol:
“Control,” medium before the pull-down, “Aβ,” washed amyloid Aβ pellet, after the pull-down, “Sup,” medium after extraction with Aβ. […] MΔIAPP was coated as non-amyloid negative control (Panel E). […] The same sections were incubated with Congo red (Panels I, K, and M) to locate amyloid deposits. Panels N and O: Pull-down assay with insoluble Aβ fibrils and finger domains. […] “Control,” medium before the pull-down, “Aβ,” washed amyloid Aβ pellet, after the pull-down, “Sup,” medium after extraction with Aβ.
Conditioned medium was used for pull-down assays using Aβ and IAPP fibrils, followed by Western blot analyses.
On the technique in general: Immunoblotting shows a protein as a band on a membrane.

For experiment [2], the target named is B9. Nature of the experiment: ELISA, immobilized peptide. (An ELISA detects its analyte on a solid surface through an enzyme-linked reagent.)
The target of experiment [3] is B2. The experiment is described as follows: ELISA, immobilized peptide, 10 mM εACA.
Experiment [4] deals with T1, human amyloid-β peptide Aβ(1-40). The experiment is described as follows: ELISA on Exiqon plates.
Experiment [5] has the same target. Nature of the experiment: ELISA, Aβ coated on plate, tPA overlaid.
For experiment [6] the target is unchanged. The experiment is described as follows: ELISA, 25 µg/ml peptide immobilized on Exiqon plates.
Experiment [7] has the same target. The experiment is described as follows: kD of tPA binding to coated hAβ(1-40), quoted for the competitive ELISA.
The target in experiment [8] is T2, advanced glycation end product-modified bovine serum albumin, glycated with glucose-6-phosphate (albumin-g6p) (bovine, UniProt P02769 25-607, glycated with glucose-6-phosphate (advanced glycation end products; 59 lysine and 23 arginine residues and the N-terminus are potential glycation sites)).
T2 construct: adopts cross-β structure; also called albumin-AGE; glycated albumin
The experiment is described as follows: kD of tPA binding to coated albumin-AGE, quoted for the competitive ELISA.

In experiment [9] the target is B2. The experiment is described as follows: ELISA, 25 µg/ml peptide immobilized on Exiqon plates.
For experiment [10], the target named is B9. Nature of the experiment: ELISA, coated ligand, FXII concentration series, 10 mM εACA. An excerpt:
(§1) Wells were coated in triplicate. […] Ten μg of the peptides that contain cross-β structure, as well as the negative control peptide MΔIAPP and phosphate-buffered saline (PBS), were spotted in duplicate onto methanol-activated nitrocellulose.

The target in experiment [11] is B7. Nature of the experiment: ELISA, 25 µg/ml peptide immobilized, excess εACA, anti-GST detection.
The target of experiment [12] is T1, human amyloid-β peptide Aβ(1-40). The experiment is described as follows: ELISA, coated ligand, anti-GST detection. The protocol: FIG. 13. […] “Control,” medium before the pull-down, “Aβ,” washed amyloid Aβ pellet, after the pull-down, “Sup,” medium after extraction with Aβ. […] MΔIAPP was coated as non-amyloid negative control (Panel E). […] The same sections were incubated with Congo red (Panels I, K, and M) to locate amyloid deposits. Panels N and O: Pull-down assay with insoluble Aβ fibrils and finger domains. […] “Control,” medium before the pull-down, “Aβ,” washed amyloid Aβ pellet, after the pull-down, “Sup,” medium after extraction with Aβ.

Experiment [13] has as its target T3, Fn F4-5-GST (finger domains 4-5 of human fibronectin with C-terminal GST tag) (human; Schistosoma japonicum, UniProt P02751 182-276).
T3 construct: domain: fibronectin type I domains 4-5; Printed in places as Fn F4-S-GST (a misprint of F4-5); also called Fn F4-S-GST; fibronectin F4-5; not shown: (G)RP vector residues and thrombin cleavage site; Schistosoma japonicum glutathion-S-transferase (GST) tag
The experiment is described as follows: ELISA, immobilized peptide.

In experiment [14] the target is B9. Nature of the experiment: dot blot, 10 µg peptide spotted, 2 nM FXII. An excerpt: Ten μg of the peptides that contain cross-β structure, as well as the negative control peptide mΔIAPP and phosphate-buffered saline (PBS), were spotted in duplicate.
In experiment [15] the target is T1, human amyloid-β peptide Aβ(1-40). The experiment is described as follows: ELISA, Aβ coated on plate, plasmin overlaid.
For experiment [16] the target is unchanged. The experiment is described as follows: ELISA, 25 µg/ml peptide immobilized, excess εACA, anti-GST detection.
The target of experiment [17] is B2. The experiment is described as follows: ELISA, tPA immobilized, β2gpi concentration series, detection with antibody 2B2.
Experiment [18] has as its target B9. The experiment is described as follows: ELISA, factor XII immobilized, β2gpi concentration series, detection with antibody 2B2.
The target of experiment [19] is T1, human amyloid-β peptide Aβ(1-40). Nature of the experiment: ELISA, coated ligand, FXII concentration series, 10 mM εACA.
Text: as §1

Values joined by “and” are separate entries in the source; they are usually repeats but may differ in a detail not shown here. Equal entries are not always repeated.

T1 sequence (peptide, as listed by the source): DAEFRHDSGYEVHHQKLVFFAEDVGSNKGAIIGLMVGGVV
T3 sequence (P02751 182-276, tags left off): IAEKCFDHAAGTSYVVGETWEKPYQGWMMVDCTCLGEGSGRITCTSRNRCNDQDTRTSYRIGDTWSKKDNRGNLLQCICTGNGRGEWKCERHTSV
T2 sequence (P02769 25-607 limits assumed): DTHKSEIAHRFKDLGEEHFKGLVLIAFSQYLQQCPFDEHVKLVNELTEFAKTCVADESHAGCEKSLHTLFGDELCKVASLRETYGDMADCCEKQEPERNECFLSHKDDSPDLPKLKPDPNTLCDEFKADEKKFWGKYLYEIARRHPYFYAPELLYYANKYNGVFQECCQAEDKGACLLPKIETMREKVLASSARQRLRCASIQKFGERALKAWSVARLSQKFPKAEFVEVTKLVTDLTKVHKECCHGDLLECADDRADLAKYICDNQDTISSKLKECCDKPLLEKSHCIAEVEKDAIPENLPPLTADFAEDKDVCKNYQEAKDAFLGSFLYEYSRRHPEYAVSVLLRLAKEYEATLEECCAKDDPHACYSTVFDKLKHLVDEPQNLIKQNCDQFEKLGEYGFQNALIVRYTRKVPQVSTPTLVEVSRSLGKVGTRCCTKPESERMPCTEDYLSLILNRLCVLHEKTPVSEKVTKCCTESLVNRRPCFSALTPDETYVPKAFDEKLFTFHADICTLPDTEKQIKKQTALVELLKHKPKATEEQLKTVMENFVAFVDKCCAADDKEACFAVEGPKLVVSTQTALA

With B1, the binding result in experiment [1] is on record as “no binding”.

On to AASIKVAVSADR [laminin α1-chain(2097-2108) amyloid core peptide (LAM12)], for which the binding result in [2] and in experiment [3] was “binds” throughout.

Take B2: the Kd is 46 nM in experiment [4]; roughly 7 nM in experiment [5]; 2 nM in [6]; 50 nM in experiment [7]; 1 nM in [8].

Consider B3, for which the dissociation constant Kd in experiment [9] was 5 nM; in experiment [10], roughly 11 nM; in experiment [11], 2 nM.

With B4, the binding result in experiment [12] is “binds”.

As to YTIAALLSPYS [amyloid fragment of transthyretin (TTR11)], the binding result in experiment [2], in experiment [13] and in [3] was “binds” throughout.

For B5, the binding result in experiment [14] is “binds”.

In turn, B6 registered a dissociation constant (Kd) in [15] of 47 nM.

B7 displayed a Kd in experiment [16] of 2 nM.

Consider B8, for which the Kd in experiment [17] is 2.3 µg/mL and 51 nM; in [18], 0.9 µg/mL and 20 nM.

The molecule B9 showed a Kd in experiment [19] of roughly 2 nM.
